± gives the standard deviation of the averaged measurements.
Assay: total protein half-life in vivo (active degradation + dilution); higher = more stable protein
[1] = wild type E. coli NCM3722, growth: C-lim chemostat, doubling time 3 h
[2] = E. coli NCM3722 delta-clpP delta-lon delta-hslV, growth: N-lim chemostat, doubling time 6 h
[3] = E. coli NCM3722 delta-clpP, growth: N-lim chemostat, doubling time 6 h
[4] = E. coli NCM3722 delta-hslV, growth: N-lim chemostat, doubling time 6 h
[5] = E. coli NCM3722 delta-lon, growth: N-lim chemostat, doubling time 6 h
[6] = E. coli NCM3722 delta-smpB, growth: N-lim chemostat, doubling time 6 h
[7] = wild type E. coli NCM3722, growth: C-lim chemostat, doubling time 6 h
[8] = wild type E. coli NCM3722, growth: C-lim chemostat, doubling time 12 h
[9] = wild type E. coli NCM3722, growth: N-lim chemostat, doubling time 6 h
[10] = wild type E. coli NCM3722, growth: N-lim chemostat, doubling time 12 h
[11] = wild type E. coli NCM3722, growth: P-lim chemostat, doubling time 6 h
[12] = wild type E. coli NCM3722, growth: P-lim chemostat, doubling time 12 h

Row | Sequence | total protein half-life in vivo [1] [h] | total protein half-life in vivo [2] [h] | total protein half-life in vivo [3] [h] | total protein half-life in vivo [4] [h] | total protein half-life in vivo [5] [h] | total protein half-life in vivo [6] [h] | total protein half-life in vivo [7] [h] | total protein half-life in vivo [8] [h] | total protein half-life in vivo [9] [h] | total protein half-life in vivo [10] [h] | total protein half-life in vivo [11] [h] | total protein half-life in vivo [12] [h]
1 | MSNVQEWQQLANKELSRREKTVDSLVHQTAEGIAIKPLYTEADLDNLEVTGTLPGLPPYVRGPRATMYTAQPWTIRQYAGFSTAKESNAFYRRNLAAGQKGLSVAFDLATHRGYDSDNPRVAGDVGKAGVAIDTVEDMKVLFDQIPLDKMSVSMTMNGAVLPVLAFYIVAAEEQGVTPDKLTGTIQNDILKEYLCRNTYIYPPKPSMRIIADIIAWCSGNMPRFNTISISGYHMGEAGANCVQQVAFTLADGIEYIKAAISAGLKIDDFAPRLSFFFGIGMDLFMNVAMLRAARYLWSEAVSGFGAQDPKSLALRTHCQTSGWSLTEQDPYNNVIRTTIEALAATLGGTQSLHTNAFDEALGLPTDFSARIARNTQIIIQEESELCRTVDPLAGSYYIESLTDQIVKQARAIIQQIDEAGGMAKAIEAGLPKRMIEEASAREQSLIDQGKRVIVGVNKYKLDHEDETDVLEIDNVMVRNEQIASLERIRATRDDAAVTAALNALTHAAQHNENLLAAAVNAARVRATLGEISDALEVAFDRYLVPSQCVTGVIAQSYHQSEKSASEFDAIVAQTEQFLADNGRRPRILIAKMGQDGHDRGAKVIASAYSDLGFDVDLSPMFSTPEEIARLAVENDVHVVGASSLAAGHKTLIPELVEALKKWGREDICVVAGGVIPPQDYAFLQERGVAAIYGPGTPMLDSVRDVLNLISQHHD | 3.42 |  |  |  |  |  |  |  |  |  |  | 
2 | MSPIEKSSKLENVCYDIRGPVLKEAKRLEEEGNKVLKLNIGNPAPFGFDAPDEILVDVIRNLPTAQGYCDSKGLYSARKAIMQHYQARGMRDVTVEDIYIGNGVSELIVQAMQALLNSGDEMLVPAPDYPLWTAAVSLSSGKAVHYLCDESSDWFPDLDDIRAKITPRTRGIVIINPNNPTGAVYSKELLMEIVEIARQHNLIIFADEIYDKILYDDAEHHSIAPLAPDLLTITFNGLSKTYRVAGFRQGWMVLNGPKKHAKGYIEGLEMLASMRLCANVPAQHAIQTALGGYQSISEFITPGGRLYEQRNRAWELINDIPGVSCVKPRGALYMFPKIDAKRFNIHDDQKMVLDFLLQEKVLLVQGTAFNWPWPDHFRIVTLPRVDDIELSLSKFARFLSGYHQL [P0A959] | 3.14 ± 0.28 | 4.25 ± 0.35 | 3.41 ± 0.16 | 3.89 ± 0.23 | 4.86 ± 1.1 | 3.88 ± 0.19 | 5.63 ± 0.23 | 9.16 ± 0.84 | 3.76 ± 0.29 | 7.13 ± 0.82 | 6.06 ± 0.87 | 11.78 ± 0.1
3 | MSPTIYDIARVAGVSKSTVSRVLNKQTNISPEAREKVLRAIEELQYQPNKLARALTSSGFDAIMVISTRSTKTTAGNPFFSEVLHAITAKAEEEGFDVILQTSHNPAEDLQKCESKIKQKMIKGIIMLSSPADESFFAQLDKYDIPVVVIGKVEGQYAHVYSVDTDNFGDSIALTDALIESGHQNIACLHAPLDVHVSVDRVNGYKQSLAAHNIAVRDEWIVDGGYTHETALKAARQLLSQSPLPEAVFATDSLKLMSIYRAAAEKNIAIPQQLAVVGYSNETLSFILTPAPGGIDVPTQELGQQSCELLFRLISGKPSPQNITVATHMTLK | 2.48 ± 0.17 | 5.84 ± 0.79 | 4.18 ± 1.6 | 5.76 ± 0.6 |  | 4.86 ± 0.18 | 5.41 ± 0.97 | 10.2 ± 2.9 | 5.34 ± 0.57 | 9.3 ± 0.42 | 5.06 ± 0.33 | 10.6 ± 2.2
4 | MSQAKSNKMGVVQLTILTMVNMMGSGIIMLPTKLAEVGTISIISWLVTAVGSMALAWAFAKCGMFSRKSGGMGGYAEYAFGKSGNFMANYTYGVSLLIANVAIAISAVGYGTELLGASLSPVQIGLATIGVLWICTVANFGGARITGQISSITVWGVIIPVVGLCIIGWFWFSPTLYVDSWNPHHAPFFSAVGSSIAMTLWAFLGLESACANTDVVENPERNVPIAVLGGTLGAAVIYIVSTNVIAGIVPNMELANSTAPFGLAFAQMFTPEVGKVIMALMVMSCCGSLLGWQFTIAQVFKSSSDEGYFPKIFSRVTKVDAPVQGMLTIVIIQSGLALMTISPSLNSQFNVLVNLAVVTNIIPYILSMAALVIIQKVANVPPSKAKVANFVAFVGAMYSFYALYSSGEEAMLYGSIVTFLGWTLYGLVSPRFELKNKHG [P0AAF1] |  | 6.73 ± 1.1 |  |  |  | 5.34 ± 1 | > 8 | > 16 | 4.53 | > 16 |  | 
5 | MSQATSMRKRHRFNSRMTRIVLLISFIFFFGRFIYSSVGAWQHHQSKKEAQQSTLSVESPVQR | 1.7 ± 0.046 | 4.55 | 4.47 | 4.32 | 4.57 ± 0.97 | 4.09 ± 0.36 | 3.19 | 5.95 | 3.526 ± 0.027 | 7.56 ± 0.76 |  | 4.32 ± 0.086
6 | MSQDPFQEREAEKYANPIPSREFILEHLTKREKPASRDELAVELHIEGEEQLEGLRRRLRAMERDGQLVFTRRQCYALPERLDLVKGTVIGHRDGYGFLRVEGRKDDLYLSSEQMKTCIHGDQVLAQPLGADRKGRREARIVRVLVPKTSQIVGRYFTEAGVGFVVPDDSRLSFDILIPPDQIMGARMGFVVVVELTQRPTRRTKAVGKIVEVLGDNMGTGMAVDIALRTHEIPYIWPQAVEQQVAGLKEEVPEEAKAGRVDLRDLPLVTIDGEDARDFDDAVYCEKKRGGGWRLWVAIADVSYYVRPSTPLDREARNRGTSVYFPSQVIPMLPEVLSNGLCSLNPQVDRLCMVCEMTVSSKGRLTGYKFYEAVMSSHARLTYTKVWHILQGDQDLREQYAPLVKHLEELHNLYKVLDKAREERGGISFESEEAKFIFNAERRIERIEQTQRNDAHKLIEECMILANISAARFVEKAKEPALFRIHDKPSTEAITSFRSVLAELGLELPGGNKPEPRDYAELLESVADRPDAEMLQTMLLRSMKQAIYDPENRGHFGLALQSYAHFTSPIRRYPDLTLHRAIKYLLAKEQGHQGNTTETGGYHYSMEEMLQLGQHCSMAERRADEATRDVADWLKCDFMLDQVGNVFKGVISSVTGFGFFVRLDDLFIDGLVHVSSLDNDYYRFDQVGQRLMGESSGQTYRLGDRVEVRVEAVNMDERKIDFSLISSERAPRNVGKTAREKAKKGDAGKKGGKRRQVGKKVNFEPDSAFRGEKKTKPKAAKKDARKAKKPSAKTQKIAAATKAKRAAKKKVAE | 3.06 ± 0.13 | 6.54 ± 0.13 |  | 5.66 ± 0.29 | 5.87 ± 0.12 | 5.35 ± 0.14 | 6.06 ± 0.13 | 12.1 ± 0.14 | 5.67 ± 0.095 | 9.82 ± 0.13 | 5.679 ± 0.029 | 11.2 ± 0.32
7 | MSQETPASTTEAQIKNKRRISPFWLLPFIALMIASWLIWDSYQDRGNTVTIDFMSADGIVPGRTPVRYQGVEVGTVQDISLSDDLRKIEVKVSIKSDMKDALREETQFWLVTPKASLAGVSGLDALVGGNYIGMMPGKGKEQDHFVALDTQPKYRLDNGDLMIHLQAPDLGSLNSGSLVYFRKIPVGKVYDYAINPNKQGVVIDVLIERRFTDLVKKGSRFWNVSGVDANVSISGAKVKLESLAALVNGAIAFDSPEESKPAEAEDTFGLYEDLAHSQRGVIIKLELPSGAGLTADSTPLMYQGLEVGQLTKLDLNPGGKVTGEMTVDPSVVTLLRENTRIELRNPKLSLSDANLSALLTGKTFELVPGDGEPRKEFVVVPGEKALLHEPDVLTLTLTAPESYGIDAGQPLILHGVQVGQVIDRKLTSKGVTFTVAIEPQHRELVKGDSKFVVNSRVDVKVGLDGVEFLGASASEWINGGIRILPGDKGEMKASYPLYANLEKALENSLSDLPTTTVSLSAETLPDVQAGSVVLYRKFEVGEVITVRPRANAFDIDLHIKPEYRNLLTSNSVFWAEGGAKVQLNGSGLTVQASPLSRALKGAISFDNLSGASASQRKGDKRILYASETAARAVGGQITLHAFDAGKLAVGMPIRYLGIDIGQIQTLDLITARNEVQAKAVLYPEYVQTFARGGTRFSVVTPQISAAGVEHLDTILQPYINVEPGRGNPRRDFELQEATITDSRYLDGLSIIVEAPEAGSLGIGTPVLFRGLEVGTVTGMTLGTLSDRVMIAMRISKRYQHLVRNNSVFWLASGYSLDFGLTGGVVKTGTFNQFIRGGIAFATPPGTPLAPKAQEGKHFLLQESEPKEWREWGTALPK | 3.01 ± 0.3 | 6.34 ± 0.49 | 6.12 ± 0.52 | 6.516 ± 0.036 | 6.06 ± 0.19 | 6.04 ± 0.27 |  |  | 6.32 ± 0.48 | 13.1 ± 0.76 | 6.43 ± 0.74 | 13.5 ± 0.26
8 | MSQKTLFTKSALAVAVALISTQAWSAGFQLNEFSSSGLGRAYSGEGAIADDAGNVSRNPALITMFDRPTFSAGAVYIDPDVNISGTSPSGRSLKADNIAPTAWVPNMHFVAPINDQFGWGASITSNYGLATEFNDTYAGGSVGGTTDLETMNLNLSGAYRLNNAWSFGLGFNAVYARAKIERFAGDLGQLVAGQIMQSPAGQTQQGQALAATANGIDSNTKIAHLNGNQWGFGWNAGILYELDKNNRYALTYRSEVKIDFKGNYSSDLNRAFNNYGLPIPTATGGATQSGYLTLNLPEMWEVSGYNRVDPQWAIHYSLAYTSWSQFQQLKATSTSGDTLFQKHEGFKDAYRIALGTTYYYDDNWTFRTGIAFDDSPVPAQNRSISIPDQDRFWLSAGTTYAFNKDASVDVGVSYMHGQSVKINEGPYQFESEGKAWLFGTNFNYAF | 3.2 ± 0.064 | 6.74 ± 1.8 |  |  |  | 5.52 ± 0.67 | 6.165 ± 0.014 | 10.9 ± 0.23 | 6.3 ± 0.37 | 11.1 ± 0.23 | 6.09 ± 0.34 | 12.2 ± 1.2
9 | MSQLCPCGSAVEYSLCCHPYVSGEKVAPDPEHLMRSRYCAFVMQDADYLIKTWHPSCGAAALRAELMAGFAHTEWLGLTVFEHCWQDADNIGFVSFVARFTEGGKTGAIIERSRFLKENGQWYYIDGTRPQFGRNDPCPCGSGKKFKKCCGQ |  | 5.73 ± 0.5 |  | > 8 |  | 5.47 | 6.31 |  | 5.43 ± 0.68 | 8.52 ± 0.57 | 5.3 ± 0.3 | 
10 | MSQNNPLRALLDKQDILLLDGAMATELEARGCNLADSLWSAKVLVENPELIREVHLDYYRAGAQCAITASYQATPAGFAARGLDEAQSKALIGKSVELARKAREAYLAENPQAGTLLVAGSVGPYGAYLADGSEYRGDYHCSVEAFQAFHRPRVEALLDAGADLLACETLPNFSEIEALAELLTAYPRARAWFSFTLRDSEHLSDGTPLRDVVALLAGYPQVVALGINCIALENTTAALQHLHGLTVLPLVVYPNSGEHYDAVSKTWHHHGEHCAQLADYLPQWQAAGARLIGGCCRTTPADIAALKARS | 2.51 ± 0.23 | 6.94 ± 1.2 | 4.714 ± 0.0092 | 4.45 ± 0.15 | 4.95 ± 0.14 | 4.6036 ± 0.0045 | 5.009 ± 0.032 | 8.67 ± 1.6 | 5.31 ± 0.38 | 8.64 ± 0.12 | 6.15 ± 0.4 | 13 ± 0.82
11 | MSQPRPLLSPPETEEQLLAQAQQLSGYTLGELAALVGLVTPENLKRDKGWIGVLLEIWLGASAGSKPEQDFAALGVELKTIPVDSLGRPLETTFVCVAPLTGNSGVTWETSHVRHKLKRVLWIPVEGERSIPLAQRRVGSPLLWSPNEEEDRQLREDWEELMDMIVLGQVERITARHGEYLQIRPKAANAKALTEAIGARGERILTLPRGFYLKKNFTSALLARHFLIQ | 2.83 ± 0.25 | 5.31 ± 1.2 | 4.23 ± 0.2 | 3.6 ± 0.27 | 5.21 ± 0.38 | 3.89 ± 0.26 | 5.16 ± 0.45 | 8.72 ± 0.48 | 4.92 |  | 5.79 | 8.63 ± 0.7
12 | MSQQRPDRIKQMLHYLWQHRHLSTQQAMELFGYAEATVRRDFQYIVNQYPGMIRGHGCLDFDDSTDDKEYVFDVKRTLQSVAKREIAALARTMIKDGDCFFLDSGSTCLELAKCLADARVKVICNDIKIANELGCFPHVESYIIGGLIRPGYFSVGESLALEMINAFSVERAFISCDALSLETGITNATMFEVGVKTRIIQRSREVILMADHSKFDAVEPHAVATLSCIKTIISDSGLPETIAQRYQRAGCQLFLPHSIK | 2 | 6.15 ± 1.6 |  |  |  | 0.761 | 2.57 ± 0.049 | 3.04 ± 0.33 |  |  |  | 

— the supplement of paper PMC11246515
